Biological target: T1, MEI-2, wild type (from MBP-TEV-MEI-2) (C. elegans, UniProt O44740 1-280)
T1 sequence (looked up): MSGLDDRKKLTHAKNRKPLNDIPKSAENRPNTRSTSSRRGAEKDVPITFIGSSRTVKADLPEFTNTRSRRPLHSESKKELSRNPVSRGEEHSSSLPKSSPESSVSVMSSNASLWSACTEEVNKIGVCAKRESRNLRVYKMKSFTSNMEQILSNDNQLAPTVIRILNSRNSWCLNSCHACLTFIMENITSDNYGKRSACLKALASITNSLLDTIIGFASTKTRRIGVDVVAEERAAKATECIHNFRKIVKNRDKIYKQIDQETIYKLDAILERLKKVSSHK
Experiment: pull-down

stoichiometry N: 1 MEI-1:MEI-2
B1: MEI-1 (short isoform), untagged, wild type (enzyme, C. elegans, UniProt P34808 1-472, looked up)
chain: MNGDVQSVIRGYLERAQVAKTMSDAGRWNEAGDLLRQLMTDVKSCKISASNRDEHDARNTFLRALEANLKLVQQNVRDEDDLHEAMTRQSGSPEPPADPDVWSKPSPPLPSSSKFGATKKGVGAAGPRPREISKSTSSMSTNPADVKPANPTQGILPQNSAGDSFDASAYDAYIVQAVRGTMATNTENTMSLDDIIGMHDVKQVLHEAVTLPLLVPEFFQGLRSPWKAMVLAGPPGTGKTLIARAIASESSSTFFTVSSTDLSSKWRGDSEKIVRLLFELARFYAPSIIFIDEIDTLGGQRGNSGEHEASRRVKSEFLVQMDGSQNKFDSRRVFVLAATNIPWELDEALRRRFEKRIFIPLPDIDARKKLIEKSMEGTPKSDEINYDDLAARTEGFSGADVVSLCRTAAINVLRRYDTKSLRGGELTAAMESLKAELVRNIDFEAALQAVSPSAGPDTMLKCKEWCDSFGAM
